Source: patent US20040175362A1

Molecular target: coxsackie-adenovirus receptor (CAR) (human) (UniProt P78310)
Test: cell-based or functional assay

UniProt P78310, sequence (P78310 20-365): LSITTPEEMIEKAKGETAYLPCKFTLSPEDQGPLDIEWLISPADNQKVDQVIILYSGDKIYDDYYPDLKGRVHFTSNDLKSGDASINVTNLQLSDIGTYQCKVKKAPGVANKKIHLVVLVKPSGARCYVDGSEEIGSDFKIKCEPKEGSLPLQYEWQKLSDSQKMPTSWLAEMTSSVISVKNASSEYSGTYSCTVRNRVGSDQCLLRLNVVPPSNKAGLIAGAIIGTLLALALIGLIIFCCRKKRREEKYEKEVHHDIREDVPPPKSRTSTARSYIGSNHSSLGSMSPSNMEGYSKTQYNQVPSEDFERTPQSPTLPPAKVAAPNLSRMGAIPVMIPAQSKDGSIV

Substance	gene expression blocked by recombinant Ad5 fiber knob, Ad5lucRGD on 293 cells [%]	gene transfer blocked by knob protein, Ad5lucRGD on primary ovarian cancer cells, MOI 1 pfu/cell [%]	luciferase activity blocked by purified fiber knob, Ad5lucRGD on SKOV3.1p1 cells [%]	gene transfer blocked by purified fiber knob, AdCMVLuc on SKOV3.1p1 cells [%]	luciferase activity blocked by recombinant Ad5 fiber knob, AdCMVLuc on 293 cells [%]
RGD-modified Ad5 fiber (… in the HI loop of the knob) as carried by the virions of Ad5lucRGD (from UniProt P11818 1-546; P11818 547-581)	40 to 60	20	20	–	–
wild type Ad5 fiber as carried by the virions of AdCMVLuc (from UniProt P11818 1-581)	–	–	–	> 90	85 to 93
